Test results published in IntAct's records for PubMed 31515488.

B1: Centrosomal protein of 55 kDa (Homo sapiens), Q53EZ4 (parent)
chain: MSSRSTKDLIKSKWGSKPSNSKSETTLEKLKGEIAHLKTSVDEITSGKGKLTDKERHRLLEKIRVLEAEKEKNAYQLTEKDKEIQRLRDQLKARYSTTTLLEQLEETTREGERREQVLKALSEEKDVLKQQLSAATSRIAELESKTNTLRLSQTVAPNCFNSSINNIHEMEIQLKDALEKNQQWLVYDQQREVYVKGLLAKIFELEKKTETAAHSLPQQTKKPESEGYLQEEKQKCYNDLLASAKKDLEVERQTITQLSFELSEFRRKYEETQKEVHNLNQLLYSQRRADVQHLEDDRHKTEKIQKLREENDIARGKLEEEKKRSEELLSQVQFLYTSLLKQQEEQTRVALLEQQMQACTLDFENEKLDRQHVQHQLHVILKELRKARNQITQLESLKQLHEFAITEPLVTFQGETENREKVAASPKSPTAALNESLVECPKCNIQYPATEHRDLLVHVEYCSK
partner: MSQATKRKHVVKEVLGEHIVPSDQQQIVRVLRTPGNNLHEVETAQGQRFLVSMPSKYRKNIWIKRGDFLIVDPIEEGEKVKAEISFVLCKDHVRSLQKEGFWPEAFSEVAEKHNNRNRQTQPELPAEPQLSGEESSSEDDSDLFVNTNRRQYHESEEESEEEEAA
B2: Growth arrest and DNA damage-inducible protein GADD45 gamma (Homo sapiens), O95257 (parent)
chain: MTLEEVRGQDTVPESTARMQGAGKALHELLLSAQRQGCLTAGVYESAKVLNVDPDNVTFCVLAAGEEDEGDIALQIHFTLIQAFCCENDIDIVRVGDVQRLAAIVGAGEEAGAPGDLHCILISNPNEDAWKDPALEKLSLFCEESRSVNDWVPSITLPE
B3: Actin-associated protein FAM107A (Homo sapiens), O95990 (parent)
chain: MYSEIQRERADIGGLMARPEYREWNPELIKPKKLLNPVKASRSHQELHRELLMNHRRGLGVDSKPELQRVLEHRRRNQLIKKKKEELEAKRLQCPFEQELLRRQQRLNQLEKPPEKEEDHAPEFIKVRENLRRIATLTSEEREL
partner: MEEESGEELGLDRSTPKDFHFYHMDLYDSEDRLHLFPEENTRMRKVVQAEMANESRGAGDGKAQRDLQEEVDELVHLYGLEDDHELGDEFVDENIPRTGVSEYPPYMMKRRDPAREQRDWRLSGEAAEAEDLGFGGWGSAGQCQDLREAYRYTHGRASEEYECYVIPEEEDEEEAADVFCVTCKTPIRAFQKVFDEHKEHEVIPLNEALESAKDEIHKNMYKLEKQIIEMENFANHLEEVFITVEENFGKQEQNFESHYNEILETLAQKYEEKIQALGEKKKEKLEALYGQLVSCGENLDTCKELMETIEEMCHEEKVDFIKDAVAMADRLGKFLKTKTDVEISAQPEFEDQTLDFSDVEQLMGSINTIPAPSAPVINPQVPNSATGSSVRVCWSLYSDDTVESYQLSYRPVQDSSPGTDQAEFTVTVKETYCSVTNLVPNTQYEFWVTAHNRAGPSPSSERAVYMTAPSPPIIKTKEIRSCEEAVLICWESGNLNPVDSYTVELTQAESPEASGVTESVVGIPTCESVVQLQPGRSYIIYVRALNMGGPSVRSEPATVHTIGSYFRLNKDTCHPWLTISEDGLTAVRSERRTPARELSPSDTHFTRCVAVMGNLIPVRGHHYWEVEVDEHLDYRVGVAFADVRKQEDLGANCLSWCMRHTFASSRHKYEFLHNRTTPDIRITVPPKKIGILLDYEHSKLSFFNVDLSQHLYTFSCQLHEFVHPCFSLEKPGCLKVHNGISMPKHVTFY
B4: Potassium channel subfamily K member 1 (Homo sapiens), O00180 (parent)
chain: MLQSLAGSSCVRLVERHRSAWCFGFLVLGYLLYLVFGAVVFSSVELPYEDLLRQELRKLKRRFLEEHECLSEQQLEQFLGRVLEASNYGVSVLSNASGNWNWDFTSALFFASTVLSTTGYGHTVPLSDGGKAFCIIYSVIGIPFTLLFLTAVVQRITVHVTRRPVLYFHIRWGFSKQVVAIVHAVLLGFVTVSCFFFIPAAVFSVLEDDWNFLESFYFCFISLSTIGLGDYVPGEGYNQKFRELYKIGITCYLLLGLIAMLVVLETFCELHELKKFRKMFYVKKDKDEDQVHIIEHDQLSFSSITDQAAGMKEDQKQNEPFVATQSSACVDGPANH
partner: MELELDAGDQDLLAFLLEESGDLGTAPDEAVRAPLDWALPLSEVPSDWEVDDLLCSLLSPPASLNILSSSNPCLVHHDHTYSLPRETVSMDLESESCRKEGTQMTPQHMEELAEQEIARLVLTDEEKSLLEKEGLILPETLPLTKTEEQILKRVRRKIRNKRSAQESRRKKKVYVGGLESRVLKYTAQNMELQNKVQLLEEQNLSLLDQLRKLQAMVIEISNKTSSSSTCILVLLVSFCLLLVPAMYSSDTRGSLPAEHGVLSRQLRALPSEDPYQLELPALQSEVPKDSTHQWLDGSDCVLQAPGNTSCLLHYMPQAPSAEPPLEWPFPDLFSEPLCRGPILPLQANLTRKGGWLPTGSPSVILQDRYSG
B5: Isoform 1 of Nucleoporin p54 (Homo sapiens), Q7Z3B4-1 (parent)
chain: MAFNFGAPSGTSGTAAATAAPAGGFGGFGTTSTTAGSAFSFSAPTNTGTTGLFGGTQNKGFGFGTGFGTTTGTSTGLGTGLGTGLGFGGFNTQQQQQTTLGGLFSQPTQAPTQSNQLINTASALSAPTLLGDERDAILAKWNQLQAFWGTGKGYFNNNIPPVEFTQENPFCRFKAVGYSCMPSNKDEDGLVVLVFNKKETEIRSQQQQLVESLHKVLGGNQTLTVNVEGTKTLPDDQTEVVIYVVERSPNGTSRRVPATTLYAHFEQANIKTQLQQLGVTLSMTRTELSPAQIKQLLQNPPAGVDPIIWEQAKVDNPDSEKLIPVPMVGFKELLRRLKVQDQMTKQHQTRLDIISEDISELQKNQTTSVAKIAQYKRKLMDLSHRTLQVLIKQEIQRKSGYAIQADEEQLRVQLDTIQGELNAPTQFKGRLNELMSQIRMQNHFGAVRSEERYYIDADLLREIKQHLKQQQEGLSHLISIIKDDLEDIKLVEHGLNETIHIRGGVFS
B6: Migration and invasion-inhibitory protein (Homo sapiens), Q5JXC2 (parent)
chain: MVEAEELAQLRLLNLELLRQLWVGQDAVRRSVARAASESSLESSSSYNSETPSTPETSSTSLSTSCPRGRSSVWGPPDACRGDLRDVARSGVASLPPAKCQHQESLGRPRPHSAPSLGTSSLRDPEPSGRLGDPGPQEAQTPRSILAQQSKLSKPRVTFSEESAVPKRSWRLRPYLGYDWIAGSLDTSSSITSQPEAFFSKLQEFRETNKEECICSHPEPQLPGLRESSGSGVEEDHECVYCYRVNRRLFPVPVDPGTPCRLCRTPRDQQGPGTLAQPAHVRVSIPLSILEPPHRYHIHRRKSFDASDTLALPRHCLLGWDIFPPKSEKSSAPRNLDLWSSVSAEAQHQKLSGTSSPFHPASPMQMLPPTPTWSVPQVPRPHVPRQKP

Variants of: B1
Conditions: with eif1a_human EIF1AD

Row | effect of a mutation on the interaction | Variant
1 | with no effect | H57Q
2 | with no effect | C236R
3 | with no effect | R348K
4 | with no effect | A244P

Variants of: B2
Conditions: with af1l1_human AFAP1L1, Q8TED9
Chain of af1l1_human AFAP1L1, Q8TED9 (Q8TED9 whole entry): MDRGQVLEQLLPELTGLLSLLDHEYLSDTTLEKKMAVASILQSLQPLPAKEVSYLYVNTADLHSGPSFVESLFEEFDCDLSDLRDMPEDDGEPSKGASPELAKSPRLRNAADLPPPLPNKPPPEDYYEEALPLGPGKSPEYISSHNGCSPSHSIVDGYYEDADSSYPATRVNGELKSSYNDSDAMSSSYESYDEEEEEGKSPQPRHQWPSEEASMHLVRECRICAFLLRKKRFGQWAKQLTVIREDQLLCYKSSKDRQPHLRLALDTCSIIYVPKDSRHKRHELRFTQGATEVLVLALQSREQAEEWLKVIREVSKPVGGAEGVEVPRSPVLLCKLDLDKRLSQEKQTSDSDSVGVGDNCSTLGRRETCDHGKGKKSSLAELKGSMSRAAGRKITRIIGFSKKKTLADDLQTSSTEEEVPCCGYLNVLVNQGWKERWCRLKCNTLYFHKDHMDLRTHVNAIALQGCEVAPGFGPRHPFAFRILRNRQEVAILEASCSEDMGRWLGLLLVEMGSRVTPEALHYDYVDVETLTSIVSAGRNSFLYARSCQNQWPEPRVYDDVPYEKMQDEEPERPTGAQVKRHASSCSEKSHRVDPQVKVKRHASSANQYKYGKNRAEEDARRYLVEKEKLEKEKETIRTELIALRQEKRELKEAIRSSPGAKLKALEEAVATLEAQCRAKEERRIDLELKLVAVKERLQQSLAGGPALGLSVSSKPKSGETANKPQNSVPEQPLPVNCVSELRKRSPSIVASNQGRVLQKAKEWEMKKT

Row | effect of a mutation on the interaction | Variant
5 | with no effect | G112S

Variants of: B2
Conditions: with rwd2b_human RWDD2B

Row | effect of a mutation on the interaction | Variant
6 | disrupting interaction strength | G112S

Variants of: B3
Conditions: with fsd2_human FSD2, A1L4K1

Row | effect of a mutation on the interaction | Variant
7 | disrupting interaction strength | E141Q

Variants of: B4
Conditions: with creb3_human CREB3, O43889

Row | effect of a mutation on the interaction | Variant
8 | with no effect | R171H

Variants of: B5
Conditions: with nup58_human NUP58, Q9BVL2
Chain of nup58_human NUP58, Q9BVL2 (Q9BVL2 whole entry): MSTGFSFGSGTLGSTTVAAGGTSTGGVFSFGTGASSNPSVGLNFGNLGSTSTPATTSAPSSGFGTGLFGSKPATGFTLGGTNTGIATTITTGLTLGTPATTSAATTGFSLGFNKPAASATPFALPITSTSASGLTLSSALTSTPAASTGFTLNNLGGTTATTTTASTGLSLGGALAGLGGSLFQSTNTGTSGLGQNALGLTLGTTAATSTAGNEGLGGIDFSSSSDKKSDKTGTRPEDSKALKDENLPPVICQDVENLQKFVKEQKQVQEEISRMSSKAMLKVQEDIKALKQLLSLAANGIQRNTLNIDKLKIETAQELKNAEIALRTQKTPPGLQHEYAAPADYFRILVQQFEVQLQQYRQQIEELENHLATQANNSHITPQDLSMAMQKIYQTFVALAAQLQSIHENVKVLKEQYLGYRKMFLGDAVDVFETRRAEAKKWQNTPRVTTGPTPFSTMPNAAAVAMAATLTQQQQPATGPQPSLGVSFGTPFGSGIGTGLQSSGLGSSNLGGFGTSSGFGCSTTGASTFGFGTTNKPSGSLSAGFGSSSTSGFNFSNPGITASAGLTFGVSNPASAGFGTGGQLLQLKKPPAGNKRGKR

Row | effect of a mutation on the interaction | Variant
9 | with no effect | T416A

Variants of: B5
Conditions: with hgs_human HGS

Row | effect of a mutation on the interaction | Variant
10 | with no effect | T416A

Variants of: B5
Conditions: with nup62_human NUP62, P37198
Chain of nup62_human NUP62, P37198 (P37198 whole entry): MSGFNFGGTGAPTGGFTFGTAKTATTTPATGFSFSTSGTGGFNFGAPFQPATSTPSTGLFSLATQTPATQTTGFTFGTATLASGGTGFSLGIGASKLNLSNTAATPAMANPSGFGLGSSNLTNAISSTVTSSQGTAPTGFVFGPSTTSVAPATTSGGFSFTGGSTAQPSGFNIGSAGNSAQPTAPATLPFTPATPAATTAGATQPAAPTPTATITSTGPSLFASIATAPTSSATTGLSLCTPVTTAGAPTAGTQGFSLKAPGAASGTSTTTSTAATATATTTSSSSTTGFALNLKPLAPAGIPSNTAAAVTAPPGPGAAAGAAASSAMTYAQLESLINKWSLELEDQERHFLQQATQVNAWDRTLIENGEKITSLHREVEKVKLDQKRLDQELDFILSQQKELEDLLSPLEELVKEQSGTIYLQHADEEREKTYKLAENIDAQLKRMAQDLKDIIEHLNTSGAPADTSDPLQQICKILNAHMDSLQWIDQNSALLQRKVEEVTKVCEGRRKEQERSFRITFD

Row | effect of a mutation on the interaction | Variant
11 | with no effect | T416A

Variants of: B5
Conditions: with KRT15, P19012
Chain of KRT15, P19012 (P19012 whole entry): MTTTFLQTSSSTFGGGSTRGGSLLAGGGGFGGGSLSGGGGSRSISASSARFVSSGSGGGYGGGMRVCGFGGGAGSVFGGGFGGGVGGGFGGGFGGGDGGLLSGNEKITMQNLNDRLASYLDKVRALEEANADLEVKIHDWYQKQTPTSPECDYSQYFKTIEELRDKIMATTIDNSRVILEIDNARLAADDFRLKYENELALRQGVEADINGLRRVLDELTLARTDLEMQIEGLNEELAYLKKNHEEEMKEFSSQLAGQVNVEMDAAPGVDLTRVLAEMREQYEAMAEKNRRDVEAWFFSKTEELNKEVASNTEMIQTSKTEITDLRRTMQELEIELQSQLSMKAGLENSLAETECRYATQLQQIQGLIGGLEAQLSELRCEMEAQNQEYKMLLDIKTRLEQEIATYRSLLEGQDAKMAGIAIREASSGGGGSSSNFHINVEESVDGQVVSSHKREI

Row | effect of a mutation on the interaction | Variant
12 | with no effect | T416A

Variants of: B6
Conditions: with stk16_human STK16, O75716
Chain of stk16_human STK16, O75716 (O75716 whole entry): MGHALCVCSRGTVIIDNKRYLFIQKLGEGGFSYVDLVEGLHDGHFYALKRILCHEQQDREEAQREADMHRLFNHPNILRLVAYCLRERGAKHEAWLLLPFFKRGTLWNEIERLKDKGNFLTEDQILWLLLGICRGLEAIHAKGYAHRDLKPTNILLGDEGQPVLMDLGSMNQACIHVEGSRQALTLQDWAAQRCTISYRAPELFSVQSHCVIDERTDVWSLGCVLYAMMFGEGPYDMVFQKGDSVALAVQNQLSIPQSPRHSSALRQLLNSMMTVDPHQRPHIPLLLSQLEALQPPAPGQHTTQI

Row | effect of a mutation on the interaction | Variant
13 | with no effect | R171C
